Experimental data as given in doi:10.1101/2022.06.29.497979, “Cryo-EM structure of a eukaryotic zinc transporter at a low pH suggests its Zn^2+-releasing mechanism” (bioRxiv, 2022).

Biological target: the molecule itself
Assay: cryo-EM structure; xtZnT8-Zn^2+: single-particle cryo-EM, 20 mM Tris-HCl pH 7.5, 150 mM NaCl, 5 mM beta-mercaptoethanol, 0.5 mM DDM, 1 mM ZnSO4; 3.9 A

B1: ZnT8 from Xenopus tropicalis, xtZnT8-BRIL fusion protein (natural protein, UniProt Q5XHB4 1-374, looked up)
chain: MKGSEEAYLVSDKATKMYSLTKDSEKNHPSKPPLQDEENPQSKYHCHNNNKKAYDARQREQTFAKKKLCIASLICFVFISAEIVGGYIAGSLAVVTDAAHLLVDLSSFFISLCSLWLSSKSSTTRLTFGWHRAEILGALMSVITIWLVTGVLVYLACERLIRPDYTIDGTVMLITSACALGANLVLALILHQSGHGHSHAGGKHEHMASEYKPQTNASIRAAFIHVIGDLFQSISVLISALIIYFKPEYKMADPICTFIFSIFVLITTVTVLRDLLTVLMEGTPRGIHYSDVKQSILAVDGVKSVHSLHLWALTMNQVILSAHIATDIVGESKRILKDVTQNVFARFPFHSVTIQVEPIEDQSPECMFCYEPTQ
notes: Zinc transporter 8 (ZnT8, SLC30A8) from Xenopus tropicalis, full-length wild type, NCBI NP_001011041.1; BRIL was fused to the carboxy-end of xtZnT8 before the TEV site and His10; it is written as a carrier under tags; also called zinc transporter 8; xtZnT8-Zn^2+; not shown: BRIL (bacterial cytochrome b562RIL), C-terminal, kept
  stoichiometry N: 2
